Laboratory results as given in US20190352423A1 (Genmab, published 2019).
Numbering of substitutions follows the chain as printed. Numbers in names are those of the source.

B1: bsCD63N74Hxb12 (bispecific antibody, part only; not given: b12 control arm, constant regions, V domains shown, not shown: another chain or arm of the molecule; a dimerising Fc or GST)
VH: EVQLQQSGPELVKPGASVKMSCKASGYTFTSYVMHWVRQTPGQGLEWIGYITPYHDGTKYNEKFKGKATLTSDKSSSTAYMELSSLTSEDSAVYYCVGGDNYYYAMDYWGQGTSVTVSA
VL: NIMVTQSPSSLAVSAGEKVTMSCKSSQSVLYSSNQKNYLAWYQQKPGQSPKLLIYWASTRVSGVPDRFTGSGSGTDFTLTISRVQAEDLAVYYCHQYFSSFTFGSGTKLEIK
B2: bsCD63xb12-Duo3 (bispecific antibody, part only; not given: b12 control arm VH and VL, IgG1, V domains shown, part only)
VH: EVQLQQSGPELVKPGASVKMSCKASGYTFTSYVMHWVRQTPGQGLEWIGYITPYNDGTKYNEKFKGKATLTSDKSSSTAYMELSSLTSEDSAVYYCVGGDNYYYAMDYWGQGTSVTVSAA
VL: NIMVTQSPSSLAVSAGEKVTMSCKSSQSVLYSSNQKNYLAWYQQKPGQSPKLLIYWASTRVSGVPDRFTGSGSGTDFTLTISRVQAEDLAVYYCHQYFSSFTFGSGTKLEIKRT
B3: bsHER2xCD63-Duo3 with CD63 variant LQ47 (bispecific antibody, part only; not given: HER2 arm, V domains shown, part only)
VH: B2 VH
VL: B2 VL with Q27H
B4: bsCD63xb12-Duo3 with CD63 variant LS52 (bispecific antibody, part only; not given: b12 control arm VH and VL, V domains shown, part only)
VH: B2 VH
VL: B2 VL with S32H
B5: bsHER2xCD63-Duo3 with CD63 variant LV49H (bispecific antibody, part only; not given: HER2 arm (IgG1-153) VH and VL, V domains shown, part only)
VH: B2 VH
VL: B2 VL with V29H
B6: bsCD63xb12-Duo3 with CD63 variant P72H (bispecific antibody, part only; not given: b12 control arm, V domains shown, part only)
VH: B2 VH with P53H
VL: B2 VL
B7: bsHER2xCD63-Duo3 with CD63 variant T71H (bispecific antibody, part only; not given: HER2 arm (IgG1-153) VH and VL, V domains shown, part only)
VH: B2 VH with T52H
VL: B2 VL
B8: bsHER2xCD63-Duo3 with CD63 variant LY51H (bispecific antibody, part only; not given: HER2 arm (IgG1-153) VH and VL, V domains shown, part only)
VH: B2 VH
VL: B2 VL with Y31H
B9: bsCD63xb12-Duo3 with CD63 variant LV49H (bispecific antibody, part only; not given: b12 control arm, V domains shown, part only)
VH: B2 VH
VL: B2 VL with V29H
B10: bsHER2xCD63-Duo3 with CD63 variant Y46 (bispecific antibody, part only; not given: HER2 arm (IgG1-153) VH and VL, V domains shown, part only)
VH: B2 VH with Y27H
VL: B2 VL
B11: bsCD63xb12-Duo3 with CD63 variant Y79H (bispecific antibody, part only; not given: b12 control arm, V domains shown, part only)
VH: B2 VH with Y60H
VL: B2 VL
B12: bsHER2xCD63-Duo3 with CD63 variant Y79H (bispecific antibody, part only; not given: HER2 arm (IgG1-153) VH and VL, V domains shown, part only)
VH: B2 VH with Y60H
VL: B2 VL
B13: bsCD63xb12-Duo3 with CD63 variant T71H (bispecific antibody, part only; not given: b12 control arm, V domains shown, part only)
VH: B2 VH with T52H
VL: B2 VL
B14: bsHER2xCD63-Duo3 with CD63 variant G76H (bispecific antibody, part only; not given: HER2 arm (IgG1-153) VH and VL, V domains shown, part only)
VH: B2 VH with G57H
VL: B2 VL
B15: bsCD63xb12-Duo3 with CD63 variant G76H (bispecific antibody, part only; not given: b12 control arm VH and VL, V domains shown, part only)
VH: B2 VH with G57H
VL: B2 VL
B16: bsHER2xCD63-Duo3 with CD63 variant P72H (bispecific antibody, part only; not given: HER2 arm (IgG1-153) VH and VL, V domains shown, part only)
VH: B2 VH with P53H
VL: B2 VL
B17: bsCD63xb12-Duo3 with CD63 variant Y46 (bispecific antibody, part only; not given: b12 control arm VH and VL, V domains shown, part only)
VH: B2 VH with Y27H
VL: B2 VL
B18: bsHER2xCD63-Duo3 (bispecific antibody, part only; not given: HER2 arm, IgG1, V domains shown, part only)
VH: B2 VH
VL: B2 VL
B19: bsCD63xb12-Duo3 with CD63 variant Y121H (bispecific antibody, part only; not given: b12 control arm VH and VL, V domains shown, part only)
VH: B2 VH with Y102H
VL: B2 VL
B20: bsCD63xb12-Duo3 with CD63 variant LN54H (bispecific antibody, part only; not given: b12 control arm VH and VL, V domains shown, part only)
VH: B2 VH
VL: B2 VL with N34H
B21: bsCD63xb12-Duo3 with CD63 variant Y127 (bispecific antibody, part only; not given: b12 control arm VH and VL, V domains shown, part only)
VH: B2 VH with Y108H
VL: B2 VL
B22: bsHER2xCD63-Duo3 with CD63 variant LS52 (bispecific antibody, part only; not given: HER2 arm (IgG1-153) VH and VL, V domains shown, part only)
VH: B2 VH
VL: B2 VL with S32H
B23: bsHER2xCD63-Duo3 with CD63 variant Y127 (bispecific antibody, part only; not given: HER2 arm (IgG1-153) VH and VL, V domains shown, part only)
VH: B2 VH with Y108H
VL: B2 VL
B24: bsHER2xCD63N74H-Duo3 (bispecific antibody, part only; not given: HER2 arm, V domains shown, part only)
VH: B2 VH with N55H
VL: B2 VL
B25: bsHER2xCD63-Duo3 with CD63 variant LN54H (bispecific antibody, part only; not given: HER2 arm (IgG1-153) VH and VL, V domains shown, part only)
VH: B2 VH
VL: B2 VL with N34H
B26: bsCD63N74Hxb12-Duo3 (bispecific antibody, part only; not given: b12 control arm, V domains shown, part only)
VH: B2 VH with N55H
VL: B2 VL
B27: bsHER2xCD63-Duo3 with CD63 variant Y121H (bispecific antibody, part only; not given: HER2 arm, V domains shown, part only)
VH: B2 VH with Y102H
VL: B2 VL
B28: bsCD63xb12-Duo3 with CD63 variant LY51H (bispecific antibody, part only; not given: b12 control arm VH and VL, V domains shown, part only)
VH: B2 VH
VL: B2 VL with Y31H
B29: bsCD63xb12-Duo3 with CD63 variant LQ47 (bispecific antibody, part only; not given: b12 control arm, V domains shown, part only)
VH: B2 VH
VL: B2 VL with Q27H

Target: CD63 on cells (human) (UniProt P08962)
Sequence (P08962 2-238): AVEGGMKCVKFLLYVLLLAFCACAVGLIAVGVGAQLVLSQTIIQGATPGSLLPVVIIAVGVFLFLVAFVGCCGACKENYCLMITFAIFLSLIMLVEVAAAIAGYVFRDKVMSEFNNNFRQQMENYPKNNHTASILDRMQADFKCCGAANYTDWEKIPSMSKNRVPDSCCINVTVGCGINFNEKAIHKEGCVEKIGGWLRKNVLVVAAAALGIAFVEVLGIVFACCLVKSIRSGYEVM
Experiment: cell-based or functional assay

| lysosomal co-localization with LAMP1 in SK-OV-3 cells (confocal microscopy, 16 hours) [fold lower] | Binder | IC50 of cytotoxicity, Colo205 cells (CellTiter-GLO, 4 days) [µg/mL] | IC50 of cytotoxicity, HCC1954 cells (CellTiter-GLO, 4 days) [µg/mL] | IC50 of cytotoxicity, SK-OV-3 cells (CellTiter-GLO, 4 days) [µg/mL] |
| --- | --- | --- | --- | --- |
| 10 | B1 | – | – | – |
| – | B2 | 2.61 | 0.424 | 0.815 |
| – | B3 | 0.587 | 0.017 | 0.048 |
| – | B4 | 2.25 | 0.662 | 1.13 |
| – | B5 | 10 | 0.065 | 0.314 |
| 10 | B6 | 10 | 0.92 | 1.72 |
| – | B7 | 2.23 | 0.03 | 0.115 |
| – | B8 | 10 | 0.069 | 0.207 |
| – | B9 | 10 | 1.65 | 1.4 |
| – | B10 | 0.754 | 0.016 | 0.045 |
| – | B11 | 3.41 | 0.42 | 0.93 |
| – | B12 | 0.432 | 0.008 | 0.021 |
| – | B13 | 10 | 4.89 | 3.8 |
| – | B14 | 10 | 0.104 | 0.351 |
| – | B15 | 1.42 | 10 | 3.06 |
| – | B16 | 1.4 | 0.014 | 0.028 |
| – | B17 | 5.64 | 0.9 | 1.37 |
| – | B18 | 0.416 | 0.009 | 0.017 |
| 10 | B19 | 10 | 10 | 5.46 |
| 10 | B20 | 10 | 1.55 | 3.35 |
| – | B21 | 1.89 | 0.664 | 1.08 |
| – | B22 | 0.567 | 0.018 | 0.047 |
| – | B23 | 0.472 | 0.017 | 0.061 |
| – | B24 | 1.35 | 0.017 | 0.037 |
| – | B25 | 1.69 | 0.013 | 0.021 |
| – | B26 | 3.93 | 1.35 | 1.99 |
| – | B27 | 10 | 0.073 | 0.259 |
| – | B28 | 10 | 5.27 | 4.52 |
| – | B29 | 2.43 | 0.753 | 1.11 |
